The text below walks through data of IntAct's records for PubMed 23123112.

B1: Protein SLM4 (Saccharomyces cerevisiae), P38247 (parent)
chain: MVMLHSKNVKGFLENTLKPYDLHSVDFKTSSLQSSMIITATNGGILSYATSNNDVPKNSINEINSVNNLKMMSLLIKDKWSEDENDTEEQHSNSCYPVEIDSFKTKIYTYEMEDLHTCVAQIPNSDLLLLFIAEGSFPYGLLVIKIERAMRELTDLFGYKLG
partner: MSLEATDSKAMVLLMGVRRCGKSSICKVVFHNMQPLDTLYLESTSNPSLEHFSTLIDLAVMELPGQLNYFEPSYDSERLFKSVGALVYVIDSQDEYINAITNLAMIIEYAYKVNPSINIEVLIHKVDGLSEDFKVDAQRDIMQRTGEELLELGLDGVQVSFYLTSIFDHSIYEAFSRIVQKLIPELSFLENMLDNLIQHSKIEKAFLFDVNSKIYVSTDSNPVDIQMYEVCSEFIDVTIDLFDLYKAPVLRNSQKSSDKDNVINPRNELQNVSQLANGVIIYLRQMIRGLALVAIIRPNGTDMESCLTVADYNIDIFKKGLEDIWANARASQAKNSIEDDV
B2: Protein SLM4 (Saccharomyces cerevisiae), P38247 (parent)
chain: B1 chain
partner: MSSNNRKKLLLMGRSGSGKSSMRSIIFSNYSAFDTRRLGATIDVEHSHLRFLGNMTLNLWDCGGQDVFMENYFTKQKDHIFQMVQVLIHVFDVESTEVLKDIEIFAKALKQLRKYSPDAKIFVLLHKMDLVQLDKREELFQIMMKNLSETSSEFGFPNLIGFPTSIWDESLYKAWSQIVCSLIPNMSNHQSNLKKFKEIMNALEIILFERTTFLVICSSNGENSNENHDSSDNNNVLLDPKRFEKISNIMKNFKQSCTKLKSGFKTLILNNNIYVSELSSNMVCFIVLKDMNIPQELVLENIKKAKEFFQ

The first assay covers variants of B1. The following applies: with ragcd_yeast GTR2, P53290.
Consider MVMLHSKNVKGFLENTLKPYDLHSVDFKTSSLQSSMIITATNGGILSYATSNNDVPKNSINEINSVAALAAMSLLIKDKWSEDENDTEEQHSNSCYPVEIDSFKTKIYTYEMEDLHTCVAQIPNSDLLLLFIAEGSFPYGLLVIKIERAMRELTDLFGYKLG, for which the “effect of a mutation on the interaction” value is “decreasing interaction strength”.

Another assay covers variants of B2. To be noted: with ragab_yeast GTR1, Q00582.
On to MVMLHSKNVKGFLENTLKPYDLHSVDFKTSSLQSSMIITATNGGILSYATSNNDVPKNSINEINSVAALAAMSLLIKDKWSEDENDTEEQHSNSCYPVEIDSFKTKIYTYEMEDLHTCVAQIPNSDLLLLFIAEGSFPYGLLVIKIERAMRELTDLFGYKLG, for which the “effect of a mutation on the interaction” value was “decreasing interaction strength”.
